# In paper PMC8449268, “Activity of the yeast vacuolar TRP channel TRPY1 is inhibited by Ca^2+–calmodulin binding” (The Journal of Biological Chemistry, 2021):
# B1: MBP-TRPY1-C (cytosolic C terminus of TRPY1 fused to maltose-binding protein) (domain or fragment, S. cerevisiae, UniProt Q12324 538-675, looked up)
# chain: KETREARRIKYNRMKRLNDDANEYDTPWDLTDGYLDDDDGLFSDNRNSGMRATQLKNSRSLKLQRTAEQEDVHFKVPKKWYKNVKKCSPSFEQYDNDDTEDDAGEDKDEVKELTKKVENLTAVITDLLEKLDIKDKKE
# notes: TRPY1 (Yvc1, gene YVC1), Saccharomyces cerevisiae; cytosolic C terminus, printed as 137 amino acids, residues 538-675 (K538 to E675); The limits 538-675 are printed for GST-TRPY1-C and for 'the complete recombinant TRPY1 C terminus'; also called MBP-fused TRPY1-C; Yvc1 C terminus; source: E. coli, purified (amylose resin)
# B2: GST-TRPY1-C (538–675) (domain or fragment, S. cerevisiae, UniProt Q12324 538-675, looked up)
# chain: KETREARRIKYNRMKRLNDDANEYDTPWDLTDGYLDDDDGLFSDNRNSGMRATQLKNSRSLKLQRTAEQEDVHFKVPKKWYKNVKKCSPSFEQYDNDDTEDDAGEDKDEVKELTKKVENLTAVITDLLEKLDIKDKKE
# notes: TRPY1 (Yvc1), Saccharomyces cerevisiae; cytosolic C terminus, printed as 137 amino acids, residues 538-675 (K538 to E675); also called GST-tagged TRPY1-C; source: E. coli, purified (glutathione sepharose)
# B3: TRPY1 C-terminal peptide of the peptide scan, residues 527–546 (peptide, UniProt Q12324 527-546, looked up)
# peptide: VYSPFLLLISVKETREARRI
# notes: source: synthetic peptide, spot-synthesised on cellulose membrane
# Experiments:
# Conditions in all cases: both partners purified
# [1] = biological target: T1, GST-Cmd1 (yeast calmodulin fused to glutathione-S-transferase) (S. cerevisiae (yeast), UniProt P06787 1-147); assay: pull-down; MBP-fused TRPY1 fragments (12 ug) immobilised on amylose resin, incubated with 12 ug GST-Cmd1 or GST-Cmd1–6 with 2 mM Ca2+, 60 min, 4 °C; bound protein detected by anti-GST blot
# T1 construct: Yeast calmodulin Cmd1, wild type; In the peptide scan the same fusion protein was used ^14C-labelled (^14C-GST-Cmd1); also called GST-fused Cmd1; yeast CaM; source: E. coli, purified (glutathione sepharose)
# T1 sequence (P06787 whole entry, the tested form may be a part): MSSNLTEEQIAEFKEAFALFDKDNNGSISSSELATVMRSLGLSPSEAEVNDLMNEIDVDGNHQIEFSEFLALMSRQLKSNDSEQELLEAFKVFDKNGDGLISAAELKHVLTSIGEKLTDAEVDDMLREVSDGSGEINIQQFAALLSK
# 6His-Cmd1 = biological target: T2, 6His-Cmd1 (S. cerevisiae (yeast), UniProt P06787 1-147); assay: pull-down; GST, GST-Cmd1 or GST-TRPY1-C (12 ug) immobilised on glutathione sepharose; 6His-Sumo-TRPY1-N or 12 ug 6His-Cmd1 added, 2 mM CaCl2, 60 min, 4 °C; SDS-PAGE and Coomassie blue staining
# T2 construct: Yeast calmodulin Cmd1, wild type; also called yeast CaM; source: E. coli, purified (Ni–NTA agarose)
# T2 sequence (P06787 whole entry): as the sequence (P06787 whole entry, the tested form may be a part) above
# [2] = biological target: T1, GST-Cmd1 (yeast calmodulin fused to …); assay: peptide or protein array; 20-mer TRPY1 peptides shifted by five residues on cellulose membrane (16 nmoles per spot); ^14C-GST-Cmd1 (60 cpm per spot) in 50 mM Tris pH 7.5, 150 mM NaCl, 0.1% Triton X-100, 2 mM CaCl2, 4 °C, 16 h; autoradiography
binder,measurement,setting,value
B1,binding result,[1],binds
B2,binding result,6His-Cmd1,binds
B3,binding result,[2],binds
